Measurements published in patent publication US20240207401A1 (IMPERIAL COLLEGE INNOVATIONS, published 2024).
Read-outs that look alike come from different tables or passages of the source.

B1: IC008 (antibody, V domains shown)
VH: LVQLQESGPRLVTPSETLSLTCTVSGGSISSSRHYWGWIRQPPGMGLEWIGSIDYSGGTYCNPSLKSRVTISEDTSKNQFSLKVNSVTAADTAVYYCARQVGHSGRGHNWFDPWGQGTLVTVSS
VL: DIQMTQSPSSLSASVGDRVTITCRASQSIYNYLNWYQQKPGKAPKFLIYAASTLQTGVPSRFSGSGSGTDFTLTISSLQPEDFATYYCQQSYSSSVTFGQGTRLEIK
notes: also called CoV-bnMAB; mAb IC008
B2: IC001 (antibody, V domains shown)
VH: QVQLVQSGAEVKKPGASVKVSCKASGYTFTSYAMHWVRQAPGQRLEWMGWINAGNGNTKYSQKFQGRVTITRDTSASTAYMELSSLRSEDTAVYYCARDRHMVVPAAVFDYWGQGTLVTVSS
VL: AIQLTQSPSTLSASVGDRVTITCRASQSISSWLAWYQQKPGKAPKLLIYKASSLESGVPSRFSGSGSGTEFTLTISSLQPDDFATYYCQQYGTFGQGTKWISN
notes: also called CoV-bnMAB; mAb IC001

Tests used:
[1] = molecular target: T1, SARS-CoV-2 spike trimer (COVID19 S ectodomain, residues 1-1208) (SARS-CoV-2, UniProt P0DTC2 14-1208); assay: ELISA on spike trimer, IgG titrated
[2] = molecular target: SARS-CoV-2 S protein, membrane form (SARS-CoV-2, UniProt P0DTC2 14-1273); assay: cell-based or functional assay
[3] = molecular target: T2, SARS-CoV spike protein, full length on virus (SARS-CoV, UniProt P59594 14-1255); assay: cell-based or functional assay
[4] = molecular target: T3, MERS-CoV spike protein, full length on virus or transfected cells (MERS-CoV, UniProt K9N5Q8 18-1353); assay: cell-based or functional assay
[5] = molecular target: T1, SARS-CoV-2 spike trimer (COVID19 S …)
[6] = molecular target: T2, SARS-CoV spike protein, full length on …; assay: cell-based or functional assay; remark: listed apart in the source
[7] = molecular target: T3, MERS-CoV spike protein, full length on …; assay: cell-based or functional assay; remark: listed apart in the source
[8] = molecular target: T4, SARS-CoV spike trimer (S ectodomain protein) (SARS-CoV, UniProt P59594 14-1195)
[9] = molecular target: T1, SARS-CoV-2 spike trimer (COVID19 S …); remark: listed apart in the source
[10] = molecular target: T5, MERS-CoV spike trimer (S ectodomain protein) (MERS-CoV, UniProt K9N5Q8 18-1296)
[11] = molecular target: T4, SARS-CoV spike trimer (S ectodomain …); assay: SARS-CoV spike
[12] = molecular target: T4, SARS-CoV spike trimer (S ectodomain …); remark: listed apart in the source
[13] = molecular target: T1, SARS-CoV-2 spike trimer (COVID19 S …); remark: listed apart in the source
[14] = molecular target: T5, MERS-CoV spike trimer (S ectodomain …); assay: MERS-CoV spike

Row | Binder | EC50 (read off the curve) [1] [nM] | IC50, neutralisation [2] [µg/mL] | IC50, neutralisation [3] [µg/mL] | IC50, neutralisation [4] [µg/mL] | EC50 [5] [nM] | fold weaker binding affinity than ACE2 [5] [fold] | neutralization of SARS-CoV pseudovirus (IC50) [6] [µg/mL] | neutralization of MERS-CoV pseudovirus (IC50) [7] [µg/mL] | Kd [8] [nM] | Kd [9] [nM] | Kd [10] [nM] | EC50 [11] [nM] | EC50 [12] [nM] | EC50 [13] [nM] | EC50 [14] [nM]
1 | B1 | ~2 | 4.5 | 3 | 2.9 |  |  |  |  |  |  |  |  |  |  | 
2 | B2 |  | 2.2 | 2.8 | 3 | 586 | ~7 | 1.8 | 2.9 | 700 | 700 | 1200 | 520 | 586 | 520 | 857
